In one series the target is LacI (Escherichia coli) (UniProt P03023). Particulars: cited from earlier work.
Series [1] concerns the molecule itself. The experiment in a line: SEC; purified LacI(1-331) after tag removal, buffer and concentration not given. On the technique in general: In gel filtration, larger molecules generally elute earlier.
Series [2] addresses LacI dimeric (lac repressor, tetramerization domain removed) (Escherichia coli, UniProt P03023 1-331). The experiment in a line: BLI; no IPTG; BLI: PBS with 0.2% BSA, 0.05% Tween-20, pH 8.0, room temperature, LacI 0-40 nM, global 1:1 kinetic fit; HDX/MS: 50 mM MOPS, 200 mM NaCl, 0.5 mM TCEP, pH 7.0, equilibrated at 4 C. Particulars: protein: recombinant; 6xHis removed with TEV protease; chain copies: 2; label: 5'-biotin on forward strand; blunt. In general terms: Biolayer interferometry detects binding as a change in optical thickness at a sensor tip.

Take LacI (from UniProt P03023): the Kd (usually the concentration at which binding is half-saturated) with LacI (Escherichia coli) was 80 nM.

B1: dimeric LacI (lac repressor, residues 1-331, without the tetramerization domain) (domain or fragment, E. coli, UniProt P03023 1-331, looked up)
chain: MKPVTLYDVAEYAGVSYQTVSRVVNQASHVSAKTREKVEAAMAELNYIPNRVAQQLAGKQSLLIGVATSSLALHAPSQIVAAIKSRADQLGASVVVSMVERSGVEACKAAVHNLLAQRVSGLIINYPLDDQDAIAVEAACTNVPALFLDVSDQTPINSIIFSHEDGTRLGVEHLVALGHQQIALLAGPLSSVSARLRLAGWHKYLTRNQIQPIAEREGDWSAMSGFQQTMQMLNEGIVPTAMLVANDQMALGAMRAITESGLRVGADISVVGYDDTEDSSCYIPPLTTIKQDFRLLGQTSVDRLLQLSQGQAVKGNQLLPVSLVKRKTTLA
notes: E. coli lac repressor (LacI), residues 1-331, tetramerization domain truncated; vector pET9a-6×His-LacI(1-331); His tag removed with TEV protease; also called LacI(1-331); apo-LacI; source: E. coli BL21(AI) ΔlacI-ZYA, purified (Ni-NTA, TEV cleavage, second Ni-NTA flowthrough)
As to B1, in series [1], the binding result was “binds”.

B2: Osyn (perfectly symmetric synthetic operator) (dsDNA)
DNA 1: AGTAGTCTAGAATTGTGAGCGCTCACAATTCTAGAGTAGT
DNA 2: ACTACTCTAGAATTGTGAGCGCTCACAATTCTAGACTACT
With B2, the Kd in series [2] stood at 1.1 nM.

B3: Olac (LacO1 natural operator, BLI) (dsDNA)
DNA 1: AGTAGTGGAATTGTGAGCGGATAACAATTGACATTGTGAGCGGATAACAAGATACTGAGCACATCAGC
DNA 2: GCTGATGTGCTCAGTATCTTGTTATCCGCTCACAATGTCAATTGTTATCCGCTCACAATTCCACTACT
For B3, the dissociation constant (Kd) in series [2] worked out at 9.5 nM.
